Data as given in the nanobody polyreactivity screen of Harvey et al. (2022).

Assay: yeast display, Sf9 membrane polyspecificity reagent, FACS + sequencing; frameworks hold sequencing errors
In short: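 Nanobodies from a synthetic yeast display library (Saccharomyces cerevisiae BJ5465), induced 36–48 hours with galactose, were stained 1 hour at 4 °C with 10% biotinylated, detergent-solubilized Sf9 membrane reagent, enriched on streptavidin microbeads, then FACS-sorted. Anti-HA (expression) and streptavidin (reagent binding) fluorescence set low and high (top ~1%) gates. Polyreactivity labels come from the gate of origin. Genes were colony-PCR amplified, MiSeq 2 × 250 sequenced and filtered by CDR length.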

Row | Sequence | polyreactivity (PSR sort gate)
1 | QVQLVESGGGLLQAGGSLRLSCAASGRTFAYNAMAWYRQAPGKERELVAAITDSDGNTYYADSVKGRFTISRDNAKNTVYLLMNSLKPEDTAVYYCAADYIILDHVTRGFVYEYWGQGTQVTVSS | low polyreactivity
2 | QVQLVESGGGLLQAGGSLRLSCAASGRTFHLYAMGWYRQAPGKERELVAAIRGRSGSTYYADSVKGRFTISRDNAKNTVYLQMNSLKPEDTAVYYCAVGRYPYGSARYRFDYWGQGTQVTVSS | high polyreactivity
3 | QVQLVESGGGLLQAGGSLRLSCAASGRTSVRYAMGWYRQAPGKERELVAAISWSGGSTYYADSVKGRFTISRDHAKNTVYLQMNCLKPEDTAVYYCNAQHARGYYYWGQGTQVTVSS | low polyreactivity
4 | QVQLVESGGGLLQAGGSLRLSCAASGRTYVWNAMGWSRQAPGKERELVAGISWRGGSTYYADSVKGRFRISRDNAKNTVYLQKNSLKPEDTAVYYFAASARFVTYKMYYWGQGTQVTVSS | high polyreactivity
5 | QVQLVESGGGLLQAGGSLRLSCAASGSIFRLNAMGWYRQAPGKERELVATINYSGDSTYYADSVKGRFTISRDNAKNTVYLQMNSLKPEDTAVYFCATDYGWYDYWGQGTQVTVSS | low polyreactivity
6 | QVQLVESGGGLLQAGGSLRLSCAASGSIFRYYAMGWYRQAPGKERELVATISTGGRTYYADSVKGRFTISRDNAKNTVYLQMNSLKPEVTAVYYCAAVRLTWTAKYNYWGQGTQVTVSS | high polyreactivity
7 | QVQLVESGGGLLQAGGSLRLSCAASGSIFYRYAMGWYRQAPWKERELVAAISRSGASTYYADSVKGRFTISRDNAKNTVYLQMNSLKPEDTAVYYCAAYFATSRLPVRYDYWGQGTQVTVSS | high polyreactivity
8 | QVQLVESGGGLLQAGGSLRLSCAASGSILYWNAMGWYRQAPGKERELVAAITGSGGSTSYADSVKGRFTISRDNAKNTVYLQMNSLKPEDTAVYYCAALQFPTPLLLYDSWGQGTQVTVSS | low polyreactivity
9 | QVQLVESGGGLLQAGGSLRLSCAASGSTFKGYAMGWYRQAPGKERELVAAISWSAGSTYYADSVKGRFTISRDNAKNTVYLQMNSLKPEDTAVYYCAKASVALRYYSYSLGRDYWGQGTQVTVSS | low polyreactivity
10 | QVQLVESGGGLLQAGGSLRLSCAASGSTFQWYAMGWYRQAPGKERELVAGITRTGSTYYADSVKGRFTISRDNAKNTVYLQMNSLKPEDTAVYYCAAKWHTASGKYYYWGQGTQVTVSS | high polyreactivity
11 | QVQLVESGGGLLQAGGSLRLSCAASGSTYFGNAMGWDRQAPGKERELVAAITSGGSTNYADSVKGRFTISRDNAKNTVYLQMNSLKPEDTAVYYCAKPSRWGWTGFYAYDYWGQGTQVTVSS | low polyreactivity
12 | QVQLVESGGGLLQAGGSLRLSCAASGVIFSWYAMGWYRQAPGKERELVAAINWSGDSTYYADSVKGRFTISRDNAKNTVYLQMNSLKPEDTAVYYCAADPSYWGDPYDYWGQGTQVTVSS | high polyreactivity
13 | QVQLVESGGGLLQAGGSLRLSCAASVNIFWRYRMGWYRQAPGKERELVAAIRRSGGTTYYADSVKGRFTISRDNAKNTVYFQMNSLKPEDTAVYNCAAGLTVRKFVRFDYWGHGTQVTVSS | low polyreactivity
14 | QVQLVESGGGLLQAGGSLRLSCASSGITFGDNVMGWYRQAPGKERELVAAISRIGDDTYYADSVKGRFTISRDNAKNTVFFQMNSLKPEDTAVYYCATDFTQRDYYNYGYWGQRTQVTVSS | low polyreactivity
15 | QVQLVESGGGLLQAGGSLRLSCASSGSTFYTNDMGWYRPAPGKERELVAAITSAGNTNYADSVKGRFTISRDNAKNTVYLQMNSLKPEDTAVYYYYYYQYDYWGQGTQVTVSS | low polyreactivity
16 | QVQLVESGGGLLQAGGTLRLSCAASGITFWSYAMGWYRQAPGKERELVAAITIGGTTYYADSVKGRFTSSRDNAKNTVYLQMNSRKPEDTAVYYCAVDSTDQAPPTYDYWGQGTQVTVSS | low polyreactivity
17 | QVQLVESGGGLVEAAGSLRLSCAASGRILCGNTMGWYRQATGKERELFAAISWNGGGTYYADSVKGRFTISRDTAKNNVYLQMNSLTPEDTAVYYCATRYTYSTDTGYDYWGQGTQVTVSS | low polyreactivity
18 | QVQLVESGGGLVEAGGSLRLICAAAGSNFSYYAMGWYRQAPGKERELVAAISWNGGRTYYADSVKGRFTISRDNAKYSVYLQMNSLKPEDTAVYYCAARSSYKFYYWGQRTQVTVSS | high polyreactivity
19 | QVQLVESGGGLVEAGGSLRLSCAASGIIFYGYDMGWYREAPGKERELVAGITVSGGTYYADSVKGRFTISRDNAKNTVYLQMNSLKPEDTAVYYSARDQWPYVHGKYAYWGQGTQVTVSS | low polyreactivity
20 | QVQLVESGGGLVEAGGSLRLSCAASGRIFCYNAMGWYRQAPGKERELVAAIRSGGRTHYADSVKGRFTISRDNAKNTVTLQMNSLKPEDTAVYYCAARSVPYPYRRNPYDYWGQGTQVTVSS | high polyreactivity
21 | QVQLVESGGGLVEAGGSLRLSCAASGRIFTGYAMGWYRQAPGKERELVAAISDGGSTNYADSVKGRFTISRDNAKNTVYLQMNSLKPEDTAVYYCAADGHSSDQYDYWGPGTQVTVSS | low polyreactivity
22 | QVQLVESGGGLVEAGGSLRLSCAASGSIFRINAMGWYRQAPGKERELVAAISTLSGRTYYADSVKGRFTISRDNAKITVYLQMNSLKPEDTAVYYCAVGQARAGLIGGYWGQGTQVTVSS | high polyreactivity

Row | Sequence | polyreactivity (PSR sort gate)
23 | QVQLVESGGGLVEAGGSLRLTCAASGYIIGGNAMGWYRQAPGKERELVAVISSRGGRTYYSDSVKGRFTISRDNAKNTVYLQLNSLKPEDTEVYYCYRVFSYQYKRDYWGQGTQVTVSS | high polyreactivity
24 | QVQLVESGGGLVEAGGSLSLTCAASGRPFQYYAMRWYRPAPGKEREFVAAITRTGARTYYAVSVKGRFTISRDNAKNTVYLQMNSLKPEATAVYYCAKSLTFYSWRDYGYWGQGTQVTVSS | high polyreactivity
25 | QVQLVESGGGLVHAGCSLRLSCAASGNIFYAYAMGWYRQAPGKERELVAAISWSGDSTYYADSVKGRFTISRDNAKNTVYLQMNSLKPEDTAVYYCAARKVTYHYQWMDYWGQGSQVTVSS | low polyreactivity
26 | QVQLVESGGGLVHAGCSLRLSCAASGSTYVPYAMGWYRQAPGRERELVADISWSGGSTYYADSVKGRFTISRDNGKNTVFLQMNSLKPEDTAVYYCAATRTKGKFDYWGQGTQVTVSS | high polyreactivity
27 | QVQLVESGGGLVHAGGCLRISCAASGRIFWYNEMGWYRQATGKERELVADITPRGTRTHYADSVKGRFTISRDNAKNTVYLQMNSLKPEDPGVYYCAKGWYTVDWDAPVFSERGEYWGQGSQVTVSS | low polyreactivity
28 | QVQLVESGGGLVHAGGILRLSCAASGFIFWSYAKGWYRQAPGKERELFAAIDLSGGSTYYADSVKGRFTISRDNAKNTVYLQLNSLKPEDTAVYYCNADGDTYAFTNSDSGFDYWGQGTQVTVSS | low polyreactivity
29 | QVQLVESGGGLVHAGGILRLSSPASGSTIRYYAMGWYRQAPGKESQLVAVISTSGNTYYADSVKGRFTISRDNAKNTVYLQMNSLKPEDTAVYYCAARGVGGQISQEYDYWGQGTQVTVSS | low polyreactivity
30 | QVQLVESGGGLVHAGGRLRLSCAASGRIFFYYAMGWYRQAPGKERELVAAISQSGGSTYYADSVKGRFTISRDNAKNTVYLQMNSLKPEDTSVYYCNAADPYYVTSAVAGDYWGQGTQVTVSS | low polyreactivity
31 | QVQLVESGGGLVHAGGRLRLSCTASGGIFRYYAMGWYRQAPGKERELVAGISRSGGSTHYADSVKGRFTISRDNAKNTVYLQMNSLKPEDTAVYYCAADTYFTKYDYWGQGTQVTVSS | high polyreactivity
32 | QVQLVESGGGLVHAGGSHRLSCAASGFTFTFYAMGWYRQAPVKERELVAAIRTSDGRTYYADSVKGRFTISRDNAKNTVYLQMNSLKPEDTAVYYCAAQVYRPRARYYEYDYWGQGTQVTVSS | high polyreactivity
33 | QVQLVESGGGLVHAGGSHRLSCAASGSIFDVNAMGWYRPPRGKERELFAAITGTGGSTYYADSVKGRFTISRDNAKNSVYLQMYSLKPDDTSVYDCATVTGVRKYGYWGQGTQVTVSS | high polyreactivity
34 | QVQLVESGGGLVHAGGSHRLSCAASGSIFPYYTMGWYRQAPGKEREMVAAISGSGTSTYYADSVKGRFTISRDNAKNTVYLQMNSLKPEDTAVYYCAADFRYYVTSLKYDYWGQGTQVTVSS | low polyreactivity
35 | QVQLVESGGGLVHAGGSLLLSCAASGRTLGWYAMGWYIQAPGKERELVATISITGGSTYYAVSVKGRFTISRDYAKNTVYLQMNSLKPEDTAVYYCAARHGSRRRYYYWGQGTQVTVSS | high polyreactivity
36 | QVQLVESGGGLVHAGGSLRISCAASGRIFYKYAMAWYRQAPGKERELVAAISTRGGSTYYADSVKWRFTISRDIAKNTVYSQMNSLKPEDTAVYYCAALSAYGYDYCGQGTQVTVSS | high polyreactivity
37 | QVQLVESGGGLVHAGGSLRISCAASGRTFLPYTMGGYRQAHGSERELVADITTSDGSTYYADSVKGRFTISRDYAKNTVYLQMNSLKPEDTAVFYCAAESPWFWAVFDYWGQGTQVTVSS | high polyreactivity
38 | QVQLVESGGGLVHAGGSLRISCAASGRTFQRNAMGWYRQAPGKERELVAAISGGGSTYYADSVKGRFTISRDNAKNTVYLQMNSLKPEDTAVYYCAASSATRLYYFSRGYDYWGQGTQVTVSS | low polyreactivity
39 | QVQLVESGGGLVHAGGSLRLSCAASGFIFKFYAMGWYRQAPGKERELVAAISKSGGRTYYADSVKGRFTISRDNAKNTVYLQMNSLKPEDTAVYYCNAPSVGAAFDYWGQGTQVTVSS | high polyreactivity
40 | QVQLVESGGGLVHAGGSLRLSCAASGFIFKRYTMGWYRQAPGKERELVATINWNGGNTYYADSVKGRFTISRDNAKNTVYLQMNSVKQDDTAVYYCAATRYVTYGSWGQGTQVTVSS | high polyreactivity
41 | QVQLVESGGGLVHAGGSLRLSCAASGFIFSSYAMGWYRPAPGKERELVAAITSRGGSTYYADSVKGRYTISRDNAKNTVYLQMNSLKPEDTAVYYCAADQGVPSTYDYWGQGTQVTVSS | low polyreactivity
42 | QVQLVESGGGLVHAGGSLRLSCAASGFIFSYNARGWYRQAPGKERELVASISRADSTNYADSVKGRFTISRDNAKNTVYLQMNSLKPEDTAVYYCAAAYWPVVWFYYWGQGTQVTVSS | low polyreactivity
43 | QVQLVESGGGLVHAGGSLRLSCAASGFIFYQYAMGWYRQAPGQERELVAAISKSGGNTNYADSVKGRFTISRDNAKNTVYLQMNSLKPEDTAVYYCAADRGQRGLYYWGQGTQVTVSS | high polyreactivity
